{"source": "patent US20200369727A1", "about": "“COMPOSITION AND METHOD FOR TREATING A PATIENT HAVING LIVER CIRRHOSIS” (priority 2019, published 2020)", "target": "T1, NS3 of SEQ ID NO: 3 (HCV NS3 genotype 4a) (Hepatitis C virus genotype 4a, UniProt O39929)", "T1 construct": "T7 tag (N); 6-His tag (C); made in house; host or cells: E. coli Rosette (DE3) pLysS", "assay": "Differential static light scattering (DSLS), aggregation temperature of NS3 with peptide", "assay_type": "binding", "details": "NS3 of SEQ ID NO: 3 with peptide in 1:2 ratio, room temperature, two hours, shaking", "experimental": "The binding of SEQ ID NO: 4 and its variants of SEQ ID NO: 6-20 to the NS3 of SEQ ID NO: 3 were determined by differential static light scattering method using Stargazer-2™ (Harbinger Biotechnology and Engineering Corporation, Toronto, Canada). The method assesses protein stability by monitoring aggregate formation upon gradual increase of temperatures. NS3 domain of SEQ ID NO: 3 stability upon binding to NS4A of SEQ ID NO: 4 was measured by monitoring denatured protein aggregation upon increasing temperature from 25 to 85° C. in 0.5° C. increments at 600 nm. […] The mixture and control were incubated at room temperature with gentle shaking for specified time. […]. Afterwards, 10 μL of the mixture was transferred into a clear bottom Nunc 384-well plate and covered by 10 μL paraffin oil to minimize evaporation. Protein aggregation was monitored by tracking the change in scattered light that was detected by a CCD camera. Snapshot images of the plate were taken every 0.5° C. The pixel intensities in a preselected region of each well were integrated using image analysis software to generate a value representative of the total amount of scattered light in that region. […] Aggregation was monitored and analyzed to assess the effect of NS4A of SEQ ID NO: 4 and its synthetic analogues of SEQ ID NO: 6-20 on the stability of the NS3 as an indicator of binding. […]", "data": [{"sequence": "KKGSVVIVGRIVLSGKK [SEQ ID NO: 4, reference compound]", "values": [{"measurement": "ΔTagg (Tagg shift, aggregation temperature)", "value": 2.83, "unit": "°C"}]}]}
